Test results: article PMC10626419, “DONSON is required for CMG helicase assembly in the mammalian cell cycle” (EMBO Reports, 2023)

Molecular target: T1, Recombinant mouse CMG helicase (CDC45‐MCM‐GINS) (mouse, UniProt Q9Z1X9 1-566; P97310 1-904; P25206 1-812; P49717 1-862; P49718 1-734; P97311 …)
T1 construct: CDC45, mouse; MCM2, mouse; MCM3, mouse; MCM4, mouse; MCM5, mouse; MCM6, mouse; MCM7, mouse; PSF1 (GINS subunit), mouse; fourth GINS subunit, mouse; PSF3 (GINS subunit), mouse; SLD5 (GINS subunit), mouse; The complex was captured on IgG Sepharose and released with TEV protease, so one subunit carried a cleavable tag; source: budding yeast strain YCE1259 co-expressing the 11 subunits, purified (IgG …)
Assay: co-IP; purified recombinant mouse DONSON and CMG incubated in 25 mM Hepes‐KOH pH 7.6, 200 mM KOAc, 0.02% NP‐40, 10 mM MgOAc, 1 mM DTT, 0.1 mg/ml BSA for 30 min on ice; CMG isolated on magnetic beads coupled to MCM6 antibody, 1 h on ice; immunoblotting (Fig 1C)
Conditions: both partners purified

binding result: binds
B1: Recombinant mouse DONSON (natural protein, UniProt Q9QXP4 1-560, looked up)
chain: MAVSVPGYSPSFKRPPETVRLRRKRSRDHGAAVPASLPEPAPRRAALAAGLPLRPFPTAGGRGGAAATIARRNPFARLDNRPRVSDEASEEPLRGPQGASGPLLDSNEENNLLWEDTSSHERTGTELSQSQRVSLSESDTWSSDGTELPVDWSIKTRLLFTSSQPFSWADHLKAQEEAQGLVQHCRATEVTLPQSIQDPKLSTALRCAFQQALVYWLHPAFSWLPLFPRIGADRKMAAKTSPWSADETLQHALMSDWSVSFTSLYNLLKTKLCPYFYVCSYQFTVLFRAAGLAGSSVITALISPTTRGLREAMRNEGIEFSLPLLEEIGHKKKVRDPSLESEEEQAVSDEDEEESFSWLEEIGVQDQIKKPDVISIKLRKEKHEVQMDHRPESVVLVKGLNTFKLLNFLINCKSLVATSGAQAGLPPTLLSPIAFRGASMQMLKARSSNVKTQALSGYRDKFSLDITGPVMPHALHSMSMLLRSSQRGSFSAGLYAHEPTAVFNVGLSLDKELDRKVAREDLANCGLHPKTLEQLSQRPVLGKSSLRSVEMSDYILSWRS
notes: DONSON, mouse; also called His‐SUMO‐DONSON (before cleavage); source: E. coli Rosetta (DE3) pLys, purified (Ni‐NTA, ULP1 cleavage, Superdex 200)
